From patent US20230192860A1 (Bristol-Myers Squibb, published 2023)
Numbering of substitutions follows the chain as printed. Each block holds one binder with its values, some of them ahead of it.

What was measured:
hVISTA-ECD 6-His tag [1] = molecular target: T1, hVISTA-ECD 6-His tag (human, UniProt Q9H7M9 33-193); test: SPR; kd at pH 6.45 over kd at pH 6.0 (head prints 7.4)
T1 construct: also called monovalent hVISTA-ECD; human VISTA
Description: (§1) Further binding kinetic experiments were performed at various pHs on VISTA antibodies described herein by SPR as generally described in Example 9 above. Antibodies were normalized to 50 nM concentration in PBST pH 7.4 and captured on a Protein A CM5 chip (ID 4931) by injecting for 45 seconds at a 5 µL/min flow rate. An 8-point human VISTA titration ([…]) was prepared in PBST at pH 7.4, 6.9, 6.45, and 6.0. Titrations were injected over the captured antibodies for 180 seconds at 30 µL/min. Sensorgrams were fit to a 1:1 binding model in T200 evaluation software and the kinetic constants were reported.
(§2) Each table reports the data at one of the four tested pHs (7.4, 6.9, 6.45, and 6.0, respectively). The 8-point hVISTA titration used in these assays was chosen to provide increased confidence in kinetic values reported at neutral pH conditions. A relatively stringent cutoff for non-binding was applied in this assay. Certain progeny of P1-061029 antibody (P1-068757, ‘759, ‘765, ‘771, and ‘775) show no binding to hVISTA at micromolar concentrations at pH 7.4, while ‘761 and ‘767 show no binding to hVISTA at 100 nM at pH 7.4 but do show binding to hVISTA at micromolar concentrations.

hVISTA-ECD 6-His tag [2] = molecular target: T1, hVISTA-ECD 6-His tag; test: SPR 37 C, Ab on Protein A, pH 7.4
hVISTA-ECD 6-His tag [3] = molecular target: T1, hVISTA-ECD 6-His tag; test: SPR 37 C, Ab on Protein A, pH 6.0
hVISTA-ECD 6-His tag [4] = molecular target: T1, hVISTA-ECD 6-His tag; test: SPR; KD at pH 6.45 over KD at pH 6.0 (head prints 7.4)
hVISTA-ECD 6-His tag [5] = molecular target: T1, hVISTA-ECD 6-His tag; test: SPR; KD at pH 6.9 over KD at pH 6.0 (head prints 7.4)
Description: as §1, §2

hVISTA-ECD 6-His tag [6] = molecular target: T1, hVISTA-ECD 6-His tag; test: SPR, Ab on Protein A, hVISTA analyte, pH 6.45
hVISTA-ECD 6-His tag [7] = molecular target: T1, hVISTA-ECD 6-His tag; test: SPR; kd at pH 6.9 over kd at pH 6.0 (head prints 7.4)
Description: as §1, §2

hVISTA-ECD 6-His tag [8] = molecular target: T1, hVISTA-ECD 6-His tag; test: SPR, Ab on Protein A, hVISTA analyte, pH 6.0
hVISTA-ECD 6-His tag [9] = molecular target: T1, hVISTA-ECD 6-His tag; test: SPR, Ab on Protein A, hVISTA analyte, pH 6.9
Description: as §1, §2

T1 sequence (Q9H7M9 other isoform, or with tags, fused parts or gaps limits assumed): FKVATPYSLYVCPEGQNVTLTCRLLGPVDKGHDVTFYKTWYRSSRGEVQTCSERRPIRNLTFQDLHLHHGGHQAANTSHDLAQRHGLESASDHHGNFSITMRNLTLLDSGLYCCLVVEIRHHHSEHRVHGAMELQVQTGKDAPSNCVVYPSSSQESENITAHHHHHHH

B1: P1-061015 (antibody, human IgG1, kappa, V domains shown)
VH: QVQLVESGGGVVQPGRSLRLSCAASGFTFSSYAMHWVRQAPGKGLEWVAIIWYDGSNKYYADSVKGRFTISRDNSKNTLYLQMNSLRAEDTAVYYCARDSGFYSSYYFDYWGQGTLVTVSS
VL: EIVLTQSPATLSLSPGERATLSCRASQSVSSSYLAWYQQKPGQAPRLLIYDASNRATGIPARFSGSGSGTDFTLTISSLEPEDFATYYCQQYNSYPYTFGQGTKLEIKR
notes: also called P1-061015.IgG1.3
- 7.4 kd/ 6.0 kd (hVISTA-ECD 6-His tag [1]): 1
- Kd (hVISTA-ECD 6-His tag [2]): 6.4 nM
- koff (hVISTA-ECD 6-His tag [2]): 0.0022 s⁻¹
- kon (hVISTA-ECD 6-His tag [2]): 340000 M⁻¹ s⁻¹
- Kd (hVISTA-ECD 6-His tag [3]): 1.9 nM
- koff (hVISTA-ECD 6-His tag [3]): 0.0016 s⁻¹
- kon (hVISTA-ECD 6-His tag [3]): 830000 M⁻¹ s⁻¹
- 7.4 KD/ 6.0 KD (hVISTA-ECD 6-His tag [4]): 2.9
- 7.4 KD/ 6.0 KD (hVISTA-ECD 6-His tag [5]): 5.1
- Kd (hVISTA-ECD 6-His tag [6]): 1.83 nM
- koff (hVISTA-ECD 6-His tag [6]): 0.00147 s⁻¹
- kon (hVISTA-ECD 6-His tag [6]): 803000 M⁻¹ s⁻¹
- 7.4 kd/ 6.0 kd (hVISTA-ECD 6-His tag [7]): 0.9
- Kd (hVISTA-ECD 6-His tag [8]): 0.622 nM
- koff (hVISTA-ECD 6-His tag [8]): 0.00154 s⁻¹
- kon (hVISTA-ECD 6-His tag [8]): 2.47e+06 M⁻¹ s⁻¹
- Kd (hVISTA-ECD 6-His tag [9]): 3.19 nM
- koff (hVISTA-ECD 6-His tag [9]): 0.00133 s⁻¹
- kon (hVISTA-ECD 6-His tag [9]): 417000 M⁻¹ s⁻¹

B2: P1-068748 (antibody, human IgG1, kappa, V domains shown)
VH: QVQLVESGGGVVQPGRSLRLSCAASGFTFSHHAMHWVRQAPGKGLEWVAIIWYDGSNDDYADSVKGRFTISRDNSKNTLYLQMNSLRAEDTAVYYCARDSGFYDSYYFDYWGQGTLVTVSS
VL: B1 VL
notes: also called P1-068748-6
- 7.4 kd/ 6.0 kd (hVISTA-ECD 6-His tag [1]): 3.4
- 7.4 KD/ 6.0 KD (hVISTA-ECD 6-His tag [4]): 4.1
- 7.4 KD/ 6.0 KD (hVISTA-ECD 6-His tag [5]): 50
- Kd (hVISTA-ECD 6-His tag [6]): 18 nM
- koff (hVISTA-ECD 6-His tag [6]): 0.012 s⁻¹
- kon (hVISTA-ECD 6-His tag [6]): 680000 M⁻¹ s⁻¹
- 7.4 kd/ 6.0 kd (hVISTA-ECD 6-His tag [7]): 4.8
- Kd (hVISTA-ECD 6-His tag [8]): 4.3 nM
- koff (hVISTA-ECD 6-His tag [8]): 0.0036 s⁻¹
- kon (hVISTA-ECD 6-His tag [8]): 840000 M⁻¹ s⁻¹
- Kd (hVISTA-ECD 6-His tag [9]): 220 nM
- koff (hVISTA-ECD 6-His tag [9]): 0.018 s⁻¹
- kon (hVISTA-ECD 6-His tag [9]): 82000 M⁻¹ s⁻¹

B3: P1-068744 (antibody, human IgG1, kappa, V domains shown)
VH: B2 VH with H31E, H32Y, I50H, D58K, D59Y, Y60E, D104E, Y110E
VL: B1 VL
notes: also called P1-068744-7
- 7.4 kd/ 6.0 kd (hVISTA-ECD 6-His tag [1]): 3.2
- Kd (hVISTA-ECD 6-His tag [2]): 1100 nM
- koff (hVISTA-ECD 6-His tag [2]): 0.036 s⁻¹
- kon (hVISTA-ECD 6-His tag [2]): 35000 M⁻¹ s⁻¹
- Kd (hVISTA-ECD 6-His tag [3]): 20 nM
- koff (hVISTA-ECD 6-His tag [3]): 0.0046 s⁻¹
- kon (hVISTA-ECD 6-His tag [3]): 230000 M⁻¹ s⁻¹
- 7.4 KD/ 6.0 KD (hVISTA-ECD 6-His tag [4]): 12.6
- 7.4 KD/ 6.0 KD (hVISTA-ECD 6-His tag [5]): 958
- Kd (hVISTA-ECD 6-His tag [6]): 64 nM
- koff (hVISTA-ECD 6-His tag [6]): 0.014 s⁻¹
- kon (hVISTA-ECD 6-His tag [6]): 220000 M⁻¹ s⁻¹
- 7.4 kd/ 6.0 kd (hVISTA-ECD 6-His tag [7]): 7.9
- Kd (hVISTA-ECD 6-His tag [8]): 5.1 nM
- koff (hVISTA-ECD 6-His tag [8]): 0.0043 s⁻¹
- kon (hVISTA-ECD 6-His tag [8]): 860000 M⁻¹ s⁻¹
- Kd (hVISTA-ECD 6-His tag [9]): 4800 nM
- koff (hVISTA-ECD 6-His tag [9]): 0.034 s⁻¹
- kon (hVISTA-ECD 6-His tag [9]): 7100 M⁻¹ s⁻¹

Next, values leading:

- 7.4 kd/ 6.0 kd (hVISTA-ECD 6-His tag [1]): 7.1
- 7.4 KD/ 6.0 KD (hVISTA-ECD 6-His tag [4]): 8
- 7.4 KD/ 6.0 KD (hVISTA-ECD 6-His tag [5]): 222
- Kd (hVISTA-ECD 6-His tag [6]): 130 nM
- koff (hVISTA-ECD 6-His tag [6]): 0.06 s⁻¹
- kon (hVISTA-ECD 6-His tag [6]): 450000 M⁻¹ s⁻¹
- 7.4 kd/ 6.0 kd (hVISTA-ECD 6-His tag [7]): 3.7
- Kd (hVISTA-ECD 6-His tag [8]): 17 nM
- koff (hVISTA-ECD 6-His tag [8]): 0.0084 s⁻¹
- kon (hVISTA-ECD 6-His tag [8]): 500000 M⁻¹ s⁻¹
- Kd (hVISTA-ECD 6-His tag [9]): 3700 nM
- koff (hVISTA-ECD 6-His tag [9]): 0.031 s⁻¹
- kon (hVISTA-ECD 6-His tag [9]): 8500 M⁻¹ s⁻¹
B4: P1-070900 (P1-068761_E56N_H100G) (antibody, human IgG1, kappa, V domains shown)
VH: EVQLVESGGGLVQPGKSLRLSCAASGFTLEDEAMHWVRQAPGKGLEWVSGINWNSENIGYADSVKGRFTISRDNAKNSLYLQMNSLRTEDTALYYCAKVPGYSGGWIDAEDVWGQGTMVTVSS
VL: not shown
notes: also called P1-070900-3

- 7.4 kd/ 6.0 kd (hVISTA-ECD 6-His tag [1]): 2.1
- 7.4 KD/ 6.0 KD (hVISTA-ECD 6-His tag [4]): 5.4
- 7.4 KD/ 6.0 KD (hVISTA-ECD 6-His tag [5]): 35.1
- Kd (hVISTA-ECD 6-His tag [6]): 35 nM
- koff (hVISTA-ECD 6-His tag [6]): 0.004 s⁻¹
- kon (hVISTA-ECD 6-His tag [6]): 120000 M⁻¹ s⁻¹
- 7.4 kd/ 6.0 kd (hVISTA-ECD 6-His tag [7]): 4.8
- Kd (hVISTA-ECD 6-His tag [8]): 6.5 nM
- koff (hVISTA-ECD 6-His tag [8]): 0.0019 s⁻¹
- kon (hVISTA-ECD 6-His tag [8]): 300000 M⁻¹ s⁻¹
- Kd (hVISTA-ECD 6-His tag [9]): 230 nM
- koff (hVISTA-ECD 6-His tag [9]): 0.0093 s⁻¹
- kon (hVISTA-ECD 6-His tag [9]): 41000 M⁻¹ s⁻¹
B5: P1-070916 (P1-068767_D52N_E55A) (antibody, human IgG1, kappa, V domains shown)
VH: B4 VH with E32Y, E56A, V112D
VL: not shown
notes: also called P1-070916-6

- 7.4 kd/ 6.0 kd (hVISTA-ECD 6-His tag [1]): 1.7
- 7.4 KD/ 6.0 KD (hVISTA-ECD 6-His tag [4]): 4.4
- 7.4 KD/ 6.0 KD (hVISTA-ECD 6-His tag [5]): 45.9
- Kd (hVISTA-ECD 6-His tag [6]): 76 nM
- koff (hVISTA-ECD 6-His tag [6]): 0.007 s⁻¹
- kon (hVISTA-ECD 6-His tag [6]): 93000 M⁻¹ s⁻¹
- 7.4 kd/ 6.0 kd (hVISTA-ECD 6-His tag [7]): 3.4
- Kd (hVISTA-ECD 6-His tag [8]): 17 nM
- koff (hVISTA-ECD 6-His tag [8]): 0.004 s⁻¹
- kon (hVISTA-ECD 6-His tag [8]): 230000 M⁻¹ s⁻¹
- Kd (hVISTA-ECD 6-His tag [9]): 790 nM
- koff (hVISTA-ECD 6-His tag [9]): 0.014 s⁻¹
- kon (hVISTA-ECD 6-His tag [9]): 18000 M⁻¹ s⁻¹
B6: P1-070922 (P1-068767_E30D_E55A) (antibody, human IgG1, kappa, V domains shown)
VH: B4 VH with E30D, E32Y, N52D, E56A, V112D
VL: not shown
notes: also called P1-070922-3
